The results in this text go back to paper PMC9054839, “Mechanism of integrin activation by talin and its cooperation with kindlin” (Nature Communications, 2022).

No end group written: not given here.

Conditions in all cases: both partners purified
One assay concerns the target T1, paxillin 1–160 (human, UniProt P49023-3 1-160).
T1 construct: paxillin-γ, human, N-terminal 1-160 containing LD1 and LD2, in pGST-1; also called paxillin-γ 1–160; paxillin N-terminal 1–160; source: E. coli BL21 (DE3), purified (GST column, gel filtration)
Kind of assay: SPR; paxillin 1–160 amine-coupled to CM5, talin subdomains (0–12 μM) flowed over; 50 mM sodium phosphate pH 6.8, 150 mM NaCl, 25 °C; talin-R1–R4 fitted by a two-state model.

The target of assay [1] is T2, constitutively activated full-length talin mutant tlnM3 (M319A, T1767L, E1770K) (mouse, UniProt P26039 1-2541, M319A | T1767L | E1770K).
T2 construct: talin (talin-1), mouse, full length 1-2541, in pET28T; also called active talin; talinFL TM; source: E. coli BL21 (DE3), purified (nickel column, Superose-6 gel filtration)
Kind of assay: SPR; GST-integrin beta3CT amine-coupled to CM5, talinH or tlnM3 (0–125 nM) flowed over; 50 mM sodium phosphate pH 6.8, 150 mM NaCl, 0.05% Tween 20, 0.03% BSA, 25 °C.

For assay [2], the target named is T2, constitutively activated full-length …. Kind of assay: pull-down; GST-paxillin (full length or fragments) on glutathione-Sepharose 4B beads, talin or talin fragments as prey; 25 mM Tris-HCl pH 7.5, 150 mM NaCl, 0.5 mM TCEP, 0.01 or 0.1% NP40, 4 °C; western blot or Coomassie.
For assay [3] the target is unchanged. The assay can be described thus: SPR; tlnM3 amine-coupled to CM5, paxiFL (0–500 nM) flowed over; 50 mM sodium phosphate pH 6.8, 150 mM NaCl, 25 °C; 1:1 model.

T1 sequence (P49023 1-160): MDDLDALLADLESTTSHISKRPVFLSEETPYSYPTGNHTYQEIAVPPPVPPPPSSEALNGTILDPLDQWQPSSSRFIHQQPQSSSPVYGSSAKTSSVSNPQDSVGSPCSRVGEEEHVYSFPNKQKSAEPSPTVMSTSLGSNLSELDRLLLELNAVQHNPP
T2 sequence (P26039 whole entry M319A/T1767L/E1770K): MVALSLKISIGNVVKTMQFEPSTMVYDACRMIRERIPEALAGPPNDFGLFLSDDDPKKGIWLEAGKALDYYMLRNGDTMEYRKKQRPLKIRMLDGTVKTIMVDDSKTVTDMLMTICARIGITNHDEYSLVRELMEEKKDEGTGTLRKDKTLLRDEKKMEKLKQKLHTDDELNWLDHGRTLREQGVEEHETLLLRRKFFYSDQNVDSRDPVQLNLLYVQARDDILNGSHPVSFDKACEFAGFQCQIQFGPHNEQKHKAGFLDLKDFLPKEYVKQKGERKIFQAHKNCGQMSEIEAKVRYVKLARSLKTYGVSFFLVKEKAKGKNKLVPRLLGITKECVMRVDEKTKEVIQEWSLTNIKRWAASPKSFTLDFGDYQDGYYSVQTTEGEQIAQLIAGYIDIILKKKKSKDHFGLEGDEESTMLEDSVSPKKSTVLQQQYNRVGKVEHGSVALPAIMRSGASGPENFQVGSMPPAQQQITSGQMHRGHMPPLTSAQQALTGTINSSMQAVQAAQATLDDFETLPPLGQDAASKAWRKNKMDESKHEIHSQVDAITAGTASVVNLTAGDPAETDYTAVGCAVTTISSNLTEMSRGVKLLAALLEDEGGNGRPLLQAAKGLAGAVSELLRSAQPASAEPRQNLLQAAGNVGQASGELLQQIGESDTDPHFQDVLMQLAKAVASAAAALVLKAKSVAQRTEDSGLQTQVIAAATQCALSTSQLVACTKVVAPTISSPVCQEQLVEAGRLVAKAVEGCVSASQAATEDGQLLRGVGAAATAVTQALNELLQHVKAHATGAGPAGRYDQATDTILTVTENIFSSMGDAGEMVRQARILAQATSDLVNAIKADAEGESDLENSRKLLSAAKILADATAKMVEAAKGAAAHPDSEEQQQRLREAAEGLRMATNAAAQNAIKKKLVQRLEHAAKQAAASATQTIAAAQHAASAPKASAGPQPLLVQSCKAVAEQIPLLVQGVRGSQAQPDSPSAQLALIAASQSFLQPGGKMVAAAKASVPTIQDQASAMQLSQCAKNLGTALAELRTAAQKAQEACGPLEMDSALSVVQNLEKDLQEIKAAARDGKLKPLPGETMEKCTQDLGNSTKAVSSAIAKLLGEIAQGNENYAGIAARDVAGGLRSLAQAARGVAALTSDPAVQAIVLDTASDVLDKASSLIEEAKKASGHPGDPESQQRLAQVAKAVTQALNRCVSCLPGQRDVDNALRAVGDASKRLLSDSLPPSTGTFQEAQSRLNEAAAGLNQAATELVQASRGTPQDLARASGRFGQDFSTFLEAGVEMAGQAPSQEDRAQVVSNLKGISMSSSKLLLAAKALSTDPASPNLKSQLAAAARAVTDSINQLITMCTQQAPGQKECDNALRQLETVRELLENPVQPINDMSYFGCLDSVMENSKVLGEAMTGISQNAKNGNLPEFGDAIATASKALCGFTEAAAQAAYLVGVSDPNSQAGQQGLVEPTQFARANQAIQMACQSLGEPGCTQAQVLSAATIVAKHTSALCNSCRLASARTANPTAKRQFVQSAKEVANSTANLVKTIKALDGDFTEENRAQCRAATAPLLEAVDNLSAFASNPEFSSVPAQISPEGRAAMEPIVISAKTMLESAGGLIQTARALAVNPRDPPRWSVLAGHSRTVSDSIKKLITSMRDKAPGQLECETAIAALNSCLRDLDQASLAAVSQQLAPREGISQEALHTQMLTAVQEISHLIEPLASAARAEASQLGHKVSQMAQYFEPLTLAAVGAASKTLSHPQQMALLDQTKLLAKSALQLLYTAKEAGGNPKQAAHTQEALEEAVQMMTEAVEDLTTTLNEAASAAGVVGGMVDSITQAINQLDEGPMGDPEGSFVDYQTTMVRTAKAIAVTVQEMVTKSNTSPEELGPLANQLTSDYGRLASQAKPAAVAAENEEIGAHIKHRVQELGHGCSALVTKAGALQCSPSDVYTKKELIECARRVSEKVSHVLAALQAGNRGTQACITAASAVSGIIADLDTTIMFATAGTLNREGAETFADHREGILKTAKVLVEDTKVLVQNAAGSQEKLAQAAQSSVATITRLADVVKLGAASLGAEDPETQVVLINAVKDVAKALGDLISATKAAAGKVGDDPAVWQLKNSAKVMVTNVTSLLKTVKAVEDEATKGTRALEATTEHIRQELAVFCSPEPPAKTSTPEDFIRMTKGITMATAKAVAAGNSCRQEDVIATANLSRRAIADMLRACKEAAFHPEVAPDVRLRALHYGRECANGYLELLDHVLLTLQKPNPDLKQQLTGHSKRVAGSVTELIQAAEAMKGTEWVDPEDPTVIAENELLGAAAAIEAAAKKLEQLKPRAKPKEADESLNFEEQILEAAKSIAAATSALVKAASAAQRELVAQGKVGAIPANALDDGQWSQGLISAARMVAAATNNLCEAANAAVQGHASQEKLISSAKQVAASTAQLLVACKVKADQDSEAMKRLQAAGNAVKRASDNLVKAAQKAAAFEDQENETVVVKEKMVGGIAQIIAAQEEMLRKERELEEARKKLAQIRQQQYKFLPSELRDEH

B1: talin-F3 (domain or fragment)
chain: GVSFFLVKEKMKGKNKLVPRLLGITKECVMRVDEKTKEVIQEWSLTNIKRWAASPKSFTLDFGDYQDGYYSVQTTEGEQIAQLIAGYIDIILKKKKS
In the assay with paxillin 1–160, B1 yielded a Kd of about 3.51 µM.

B2: talin-R8 (domain or fragment, mouse, UniProt P26039 1461-1580, looked up)
chain: LVEPTQFARANQAIQMACQSLGEPGCTQAQVLSAATIVAKHTSALCNSCRLASARTANPTAKRQFVQSAKEVANSTANLVKTIKALDGDFTEENRAQCRAATAPLLEAVDNLSAFASNPE
notes: talin (talin-1), mouse, rod subdomain R8; source: E. coli BL21 (DE3), purified
In the case of B2, the Kd in the assay with paxillin 1–160 is about 5.37 µM.

B3: talin-R2 (domain or fragment, mouse, UniProt P26039 655-782, looked up)
chain: IGESDTDPHFQDVLMQLAKAVASAAAALVLKAKSVAQRTEDSGLQTQVIAAATQCALSTSQLVACTKVVAPTISSPVCQEQLVEAGRLVAKAVEGCVSASQAATEDGQLLRGVGAAATAVTQALNELL
notes: talin (talin-1), mouse, rod subdomain R2; source: E. coli BL21 (DE3), purified
The molecule B3 had a dissociation constant (Kd) with paxillin 1–160 of about 2.21 µM.

B4: GST-integrin beta3 cytoplasmic tail (domain or fragment, UniProt P05106 742-788, looked up)
chain: {GST}-KLLITIHDRKEFAKFEEERARAKWDTANNPLYKEATSTFTNITYRGT
notes: integrin β3 cytoplasmic tail; also called integrin-β3 CT; GST-integrin beta3CT; source: E. coli BL21 (DE3), purified
In turn, B4 came in with a Kd in assay [1] of about 0.0145 µM.

B5: GST-paxillin 1–160 (domain or fragment)
chain: not shown
notes: paxillin-γ, human, N-terminal 1-160 containing LD1 and LD2, in pGST-1; also called paxi1–160; source: E. coli BL21 (DE3), purified (GST column, gel filtration)
With B5, the binding result in assay [2] was “binds”.

B6: full-length paxillin (natural protein)
chain: not shown
notes: also called paxiFL; paxillin-γ; source: E. coli BL21 (DE3), purified (GST column, gel filtration)
With B6, in assay [3], the Kd is about 0.0331 µM and the “stoichiometry N” value was 1.
